Experimental data as given in the nanobody polyreactivity screen of Harvey et al. (2022).

Assay: yeast display, Sf9 membrane polyspecificity reagent, FACS + sequencing; frameworks hold sequencing errors
How it was run: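 Sorting gates, low and high (top ~1%), were placed on anti-HA fluorescence to track expression and on streptavidin fluorescence to track reagent binding. A clone's polyreactivity label is taken from the gate it came out of. The reagent was 10% biotinylated, detergent-solubilized Sf9 membrane, applied for 1 hour at 4 °C to galactose-induced yeast display cells.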

Row | Sequence | polyreactivity (PSR sort gate)
1 | QVQLVESGGGLVQAGGSLRLSCAASGSIFYGYAMGWYRQAPGKEREFVAAITWSGGSTHYADSVKGRFTNSRDNAKNTVYVQMNSLKPEDTAVYYCAAPSYGNYPYRSYVWYGYWGQGTQVTVSS | high polyreactivity
2 | QVQLVESGGGLVQAGGSLRLSCAASGSIFYGYAMGWYRQAPGKEREFVASINSGVGSTYYADSVKGRFTISRDNAKNTVYLQMNSLKPEDTAVYYCNKVHRSFTYNDGQTPAYDYWGQGTQVTVSS | low polyreactivity
3 | QVQLVESGGGLVQAGGSLRLSCAASGSIFYGYAMGWYRQAPGKERELVAAISSSGGTTYYADSVKGRFTISRDNAKNTVYLQMNSLKPEDTAVYYCAALGGYYYRTRYNGDYWGHGTQVTVSS | high polyreactivity
4 | QVQLVESGGGLVQAGGSLRLSCAASGSIFYGYAMGWYRQAPGKERELVAGISNGGSTNYADSVKGRFTISRDNAKNTVYLQLNSLKPEDTAVYYCNATYYSAYSYLYGYWGQGTQVTVSS | low polyreactivity
5 | QVQLVESGGGLVQAGGSLRLSCAASGSIFYGYAMGWYRQAPGKERELVAVITDGGGSTYYADSVKGRFTISRDNAMNTVYLQMNSLKPEDTAVYYCNRVFPPTDYEFDSWGQGTQLTVSS | low polyreactivity
6 | QVQLVESGGGLVQAGGSLRLSCAASGSIFYGYAMGWYRQAPGTERELVAALSWSDGITYYADSVKGRFTISRDNGKNTGYLQMKNLKPEDTAVYSCAAEYGQYGYDYWGKGTQVTVSS | high polyreactivity
7 | QVQLVESGGGLVQAGGSLRLSCAASGSIFYGYARGWYRQAPGKERELVASITSSGGSTYYADSVKGRFTISRDNAKNTDYLQMNSLKPEDSAVYYCAVIGYHYSAISPPSQTRQGYDYWGQVTQVTVSS | low polyreactivity
8 | QVQLVESGGGLVQAGGSLRLSCAASGSIFYGYDMGWYRQAPGKERELVAAISRSGGSTYYADSVKGRFTISRDNAKNTVYLQMNSLKPEDTAVSYCNAYPVTFVYYVGDGYWGQGTQVTVSS | high polyreactivity
9 | QVQLVESGGGLVQAGGSLRLSCAASGSIFYGYTMGWYRQEPGKERELVAAIRKSGGSTNYADSVKGRFTISRDNAKNTVYLQMNSLKPEDTAVFYCAAAYYRGRGYYWGQGTQVTESS | high polyreactivity
10 | QVQLVESGGGLVQAGGSLRLSCAASGSIFYHNAMGRYRQAPGKERELVAAITGSGGSTYYADAVKGRFTISRDKAKNTVYFQMNSLKPEDTAVYDCAADGYTKWWISWGYDYWGQGTQVTVSS | low polyreactivity
11 | QVQLVESGGGLVQAGGSLRLSCAASGSIFYHNAMGWYRQAPGKERELVAAISSSGGNTYYADSVKGRFTISRDNAKNTVYLQLNSLKPEDTAVYYCNKGFSYRSGRGYWGQGTQVTVSS | high polyreactivity
12 | QVQLVESGGGLVQAGGSLRLSCAASGSIFYHNAMGWYRQAPGKERELVAAITWSGSTTYYADSVKGRFTISRDNAKNTVYLQMKSLKPEDTAVYYCNAGNRHGHYDYWGQGTQVTVSS | low polyreactivity
13 | QVQLVESGGGLVQAGGSLRLSCAASGSIFYHNAMGWYSPAPGKERELVAAISASGSTYYADSVKGRFTISRDNAKNTVSLQMNSLKTEDTAVYYCTFYWYNYWGQGTQVTVSS | high polyreactivity
14 | QVQLVESGGGLVQAGGSLRLSCAASGSIFYHYAMGWYRQAPGKERELVAAISDRGTSTYYADSVKGRFTISRDNAKNTVYLQMNSLKPEDTAVYYCAAEGSLNSFYYSYYYWGQGTQVTVSS | high polyreactivity
15 | QVQLVESGGGLVQAGGSLRLSCAASGSIFYINAMGWYRQAPGKERELVAAITSDGSTYYADSVKGRFTISRDNAKNTVYLQMNSLKPEDTAVYYCAADLTSDQYLYYWYWFYSWGQGTQVTVSS | low polyreactivity
16 | QVQLVESGGGLVQAGGSLRLSCAASGSIFYINDMGWYRQAPGKERELVASINSSGDSTYYADSVKGRFTISRDNAKNTVYLQMNSLKPEDTAVYYCAADDGYPIQEYDYWGQGTQVTVSS | low polyreactivity
17 | QVQLVESGGGLVQAGGSLRLSCAASGSIFYIYAMGWYRQAPGKERELVAGINGGGASTYYADSVKGRFTISRDNAKNTVYLQMNSLKPEDTAVYYCAADIRYLGEYWGQGTQVTVSS | low polyreactivity
18 | QVQLVESGGGLVQAGGSLRLSCAASGSIFYKNAMGWYRQAPGKERELVAAISSSGGSTRYADSVKGRFTISRDNSKNTVSLQMNSLKPEDTAVYYCAASGSRTSRGYWGQGTQVTVSS | high polyreactivity
19 | QVQLVESGGGLVQAGGSLRLSCAASGSIFYKYAMGWYRQAPGKERELVATIRASGGRTYYADSVKGRFTISRDNAKNTVYLQMNSLKPEDTAVYYCAKYTTRGVYRSWPKDMDYWGQGTQVTVSS | low polyreactivity
20 | QVQLVESGGGLVQAGGSLRLSCAASGSIFYLYAMGWYRQAPGKERDVVAAITWRGGITNYADSVKGRFTISRYNAKNTVYLQMNSLKPEVTAVYYCAADPYRFLATELYYWGQGTQVTVSS | low polyreactivity
21 | QVQLVESGGGLVQAGGSLRLSCAASGSIFYLYAMGWYRQAPGKERELVATMSSSGGSTYYADSVKGRFTISRDNAKNTVYLQMISLKPEDTAVYYCNADYIYYGTTYEYWGQGTQVTVSS | low polyreactivity
22 | QVQLVESGGGLVQAGGSLRLSCAASGSIFYLYAMGWYRQEPGKERELVAAINFRGGSTYADSVKGRFTISRDNAKNTVYLQMNSLKPEDTAVYYCAAKAAYRMNYWGQGTQVTVSS | high polyreactivity

Row | Sequence | polyreactivity (PSR sort gate)
23 | QVQLVESGGGLVQAGGSLRLSCAASGSIFYLYDKGWYRQAPGKERELVADITWSGGSTYYADSVKGRFTISRDNAKNTVYLQMYSLKPEDTAVYYCAAAYGPFYYELYDYWGLGTQVTVSS | low polyreactivity
24 | QVQLVESGGGLVQAGGSLRLSCAASGSIFYLYTMGWNRQAPGKERELVAAITAISGSTYYADSVKGRFTISRDNAKNTVYLQINSLKPEDTAVYYCAAKYYRHRWQLYNYWGQGTQVTVSS | high polyreactivity
25 | QVQLVESGGGLVQAGGSLRLSCAASGSIFYPNAMGWYRQAPGKERELVAANSIGGGRTYYADSVKGRFTISRDNAKNTVYLQMNSLKPEDTAVYYCAASFYSYTSTWAYRFYYWGQGTQVTVSS | high polyreactivity
26 | QVQLVESGGGLVQAGGSLRLSCAASGSIFYPNVMGWYRQAPGKERELVAAIRTSGGSTYYADSVKGRFTISRDNAKNTVYLQMNSLKPEDTAVYYCAADYIYVKYEYWGQGTQVTVSS | high polyreactivity
27 | QVQLVESGGGLVQAGGSLRLSCAASGSIFYPYAMGRYRQAPGKERELVASIRSRRGTTFYADSVKGRFTISRDNAKNTVYLQMNSLKPEDTAVYYCAVDNWSSSYYWWVDKLGGSDYWGQGTQVTVSS | low polyreactivity
28 | QVQLVESGGGLVQAGGSLRLSCAASGSIFYPYAMGWSSKAPRKERELVARISSAGGTYYADSVKGRFTISRDNAKNTVYLQMNSLKPEDTAVYYCAAQARYRYYYWGQGTQVTVSS | high polyreactivity
29 | QVQLVESGGGLVQAGGSLRLSCAASGSIFYPYAMGWYRQAPGKERELVAAISSGGTTYYADSVKGRFTISRDNAKNTVYLQMNSLKPEDTAVYYCGAGFYLRAVWMDYWGQGTQVTVSS | high polyreactivity
30 | QVQLVESGGGLVQAGGSLRLSCAASGSIFYPYAMGWYRQAPGKERELVAAISSSGGSTYYADSVKGRFTISRDTAKNTVYLQMNSLKPEDTAVYYCAARGKKHAYDYWGQGTQVTVSS | low polyreactivity
31 | QVQLVESGGGLVQAGGSLRLSCAASGSIFYPYAMGWYRQAPGKERELVASISSGGSTYYADSVKGRFTISRDNGKNTVYLQMISLKTDDTAVYYCIAVFSTFTGEYYWGKGTQVTVSS | high polyreactivity
32 | QVQLVESGGGLVQAGGSLRLSCAASGSIFYPYAMGWYSQAPGKERELVAGISRSGASTYYADSVKGRFTISRDNAKNTVYLQMNSLKPEDTAVYYCAADDWTRNYWGQGTQVTVSS | low polyreactivity
33 | QVQLVESGGGLVQAGGSLRLSCAASGSIFYPYVMGWYRQAPGKERELVATITWSGDDTNYADSVKGRFTISRDNAKNTVYLQMNSLKPEDTAVYYCAVGYGDYLYYDYDYWGQGTQVTVSS | low polyreactivity
34 | QVQLVESGGGLVQAGGSLRLSCAASGSIFYQNAMGWYIQAPGKERELVAAITSDGSTYYADSVKGRFTISRDNAKNTVYLQMNSLKPEDTAVYYCAAEYYGHRYDYWGQGTQVTVSS | low polyreactivity
35 | QVQLVESGGGLVQAGGSLRLSCAASGSIFYQNAMGWYRQAPGKEREFVAAITWIGGSTYYADSVKGRFTISRDNAKNSVYLQMNILKPEDTAVYYCAADSVDNIYYGFDYWGQGTQVTVSS | high polyreactivity
36 | QVQLVESGGGLVQAGGSLRLSCAASGSIFYQNAMGWYRQAPGKERELVAAISSAGSTYYADSVKGRFTISRDNAKNTVYLQMNSLKPEDTAVYYCARRSSGELGYHIYDYWGQGTQVTVSS | low polyreactivity
37 | QVQLVESGGGLVQAGGSLRLSCAASGSIFYQNAMGWYRQAPGKERELVAAITWRSGSTYYADSVKGRFTISRDNAKNTVDLQMNSLKPEDTAVYYCAADLLISPEFYYWGQGTQVTVSS | high polyreactivity
38 | QVQLVESGGGLVQAGGSLRLSCAASGSIFYQNMGWYRQAPRKERELVATINRGSSTHYADSVKGRFTISRDNAKNTVYLQMNSLKPEDTAVYYCAKRSSRYRLYYWGQGTQVTVSS | high polyreactivity
39 | QVQLVESGGGLVQAGGSLRLSCAASGSIFYQYAMGWYRQAPGKERELVARIRGSTGTTYYADSVKGRFTISRDNAKNTVYLQMNSLKPEDTAVYYCNAARYQGRSRFDYWGQGTQVTVSS | high polyreactivity
40 | QVQLVESGGGLVQAGGSLRLSCAASGSIFYRNAMGWSRQAPGKEREFVAAITLRGGSTYYADSVKGRFTISRDYAKNTVYLQMNSLKPEDTAVYYCNAGVGLTYVHDGDYWGQGTQVTVSS | low polyreactivity
41 | QVQLVESGGGLVQAGGSLRLSCAASGSIFYRNAMGWYRQAPGKEREFVAAITLRGGSTYYADSVKGRFTISRDKAKNTVYLQMNSLKPEDTAVYYCNAGVGLTYVHDGDYWGQGTQVTVSS | low polyreactivity
42 | QVQLVESGGGLVQAGGSLRLSCAASGSIFYRNAMGWYRQAPGKERELVAAISSDGSTNYADSVKGRFTISRDNAKNTVYLQMNSLKPEDTAVSYCAAPWTQILDYWGQGTQVTVSS | low polyreactivity
43 | QVQLVESGGGLVQAGGSLRLSCAASGSIFYRNAMGWYRQAPGKERELVAAITWSGVNTYYADSVKGRFTISRDNAKNTVYLQMNSLKPEDTAVYYCAVPSRYWLNRGFDYWGQGSQVTVSS | low polyreactivity
